Source: US20260116991A1 (HAINAN SIMCERE ZAIMING PHARMACEUTICAL, published 2026)
Changes are numbered by the printed parent chain. Blank lines part the entries; values can stand above or below the binder they belong to.

Molecular target: T1, murine GPC3-his protein (Sino Biological, Cat. No. 50989-M08B) (murine, UniProt Q8CFZ4 25-558)
T1 construct: Bought protein; also called murine GPC3 protein
Test: ELISA, coated murine GPC3-His;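 note: antigen coated on plates at 1 µg/mL, test antibody bound for 2 h at 37 °C, detected with HRP-conjugated secondary antibody and TMB substrate after acid stop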
Description: The specific method is described as follows: The antigen protein was diluted with PBS to a final concentration of 1 μg/mL, and the diluent was added to a 96-well ELISA plate at 50 μL/well. The plate was sealed with a plastic film and incubated at 4° C. overnight, washed twice with PBS the next day, and a blocking solution [PBS+2% (w/w) BSA] was added for blocking at room temperature for 2 h. […] After incubation at 37° C. for 2 h, the plate was washed 3 times with PBS. A horseradish peroxidase (HRP)-labeled secondary antibody (purchased from Merck, Cat. No. AP113P) was added for incubation at 37° C. for 1 h, and the plate was washed 5 times with PBS. A TMB substrate was added at 50 μL/well for incubation at room temperature for 10 min, then a stop solution (1.0M HCl) was added at 50 μL/well. An ELISA plate reader (Multimode Plate Reader, EnSight, purchased from Perkin Elmer) was used to read OD_{450 nm} values, with results as shown in Table 4 to Table 6, FIG. 1A, FIG. 1B, and FIG. 1C.

T1 sequence (Q8CFZ4 25-558 limits assumed): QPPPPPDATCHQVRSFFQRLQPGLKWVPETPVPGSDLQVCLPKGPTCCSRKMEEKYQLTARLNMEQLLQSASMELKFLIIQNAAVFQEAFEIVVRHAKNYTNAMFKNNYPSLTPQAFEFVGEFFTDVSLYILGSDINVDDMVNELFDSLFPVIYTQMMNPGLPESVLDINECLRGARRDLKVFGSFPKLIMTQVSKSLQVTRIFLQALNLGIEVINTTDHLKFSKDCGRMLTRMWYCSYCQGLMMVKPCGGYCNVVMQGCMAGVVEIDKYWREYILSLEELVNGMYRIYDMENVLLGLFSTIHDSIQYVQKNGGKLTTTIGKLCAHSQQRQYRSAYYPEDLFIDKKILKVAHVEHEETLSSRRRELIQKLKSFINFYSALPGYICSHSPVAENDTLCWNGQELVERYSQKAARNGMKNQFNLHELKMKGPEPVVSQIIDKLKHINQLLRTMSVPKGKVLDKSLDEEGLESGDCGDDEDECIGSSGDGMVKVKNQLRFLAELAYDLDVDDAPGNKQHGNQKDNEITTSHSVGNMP

B2: F1.62.9 human-murine chimeric antibody (antibody, human IgG1, kappa, V domains shown)
VH: QVQLQQSDAELVKPGASVKISCKVSGYIFTDHTIHWMKQRPEQGLEWIGYIYPRDGSIKYNENFKGKATLTADKSSSATYMQLNSLTSEDSAVYFCARPIYYDYAYYFDYWGQGTTLTVSS
VL: DVVMTQSPLSLPVSLGDQASISCRSRQSLVHSNGNTYLHWYLQKPGQSPKVLIYKVSNRFSGVPDRFSGSGSGTDFTLKISRVEAEDLGVYFCSQSTHVPYTFGGGTKLEIKR
OD450 at 0.0001 nM antibody: 0.04 OD450 nm
OD450 at 0.001 nM antibody: 0.04 OD450 nm
OD450 at 0.01 nM antibody: 0.05 OD450 nm
OD450 at 0.1 nM antibody: 0.04 OD450 nm
OD450 at 1 nM antibody: 0.04 OD450 nm
OD450 at 10 nM antibody: 0.06 OD450 nm
OD450 at 100 nM antibody: 0.28 OD450 nm

B3: F2.23.8 human-murine chimeric antibody (antibody, human IgG1, kappa, V domains shown)
VH: QVQLQQSGAELVRPGASVKLSCKASGYTFTDYEMHWVKQTPVHGLEWFGAIDPETGGTAYNQKFRAKATLTADKSSSTAYMELRSLTSEDSAVYYCTRFYSFAYWGQGTLVTVSA
VL: B2 VL with S7T, R26S, H39Q, V51L, S81T, G105S
OD450 at 0.0001 nM antibody: 0.05 OD450 nm
OD450 at 0.001 nM antibody: 0.06 OD450 nm
OD450 at 0.01 nM antibody: 0.07 OD450 nm
OD450 at 0.1 nM antibody: 0.04 OD450 nm
OD450 at 1 nM antibody: 0.06 OD450 nm
OD450 at 10 nM antibody: 0.05 OD450 nm
OD450 at 100 nM antibody: 0.06 OD450 nm

B4: F2.92.1 human-murine chimeric antibody (antibody, human IgG1, kappa, V domains shown)
VH: B3 VH with T28I, T30S, M34I, W47C, F48I, I51V, R65K, A66G, Y95F, A115T
VL: B2 VL with S7T, A19G, R26S, H39Q, V51L, S94C, P100L, Y101P
OD450 at 0.0001 nM antibody: 0.04 OD450 nm
OD450 at 0.001 nM antibody: 0.05 OD450 nm
OD450 at 0.01 nM antibody: 0.05 OD450 nm
OD450 at 0.1 nM antibody: 0.07 OD450 nm
OD450 at 1 nM antibody: 0.05 OD450 nm
OD450 at 10 nM antibody: 0.05 OD450 nm
OD450 at 100 nM antibody: 0.07 OD450 nm

B6: F2.39.2 human-murine chimeric antibody (antibody, human IgG1, kappa, V domains shown)
VH: B3 VH with L20V, V37M, F48I, I51N, D52E, G57R, T58S, N61D, R65K, A66G
VL: B2 VL with S7T, R26S, S28G, S32N, V51L, S96N, Y101P
OD450 at 0.0001 nM antibody: 0.05 OD450 nm
OD450 at 0.001 nM antibody: 0.06 OD450 nm
OD450 at 0.01 nM antibody: 0.07 OD450 nm
OD450 at 0.1 nM antibody: 0.05 OD450 nm
OD450 at 1 nM antibody: 0.05 OD450 nm
OD450 at 10 nM antibody: 0.05 OD450 nm
OD450 at 100 nM antibody: 0.06 OD450 nm

B8: F2.55.11 human-murine chimeric antibody (antibody, human IgG1, kappa, V domains shown)
VH: EVKLVESGGGLVKPGGSLKLSCAASGLTFSTCTMSWVRQTPAKRLEWVATISSGGGNTYYPDSVKGRFTISRDNARNTLYLQMSSLRSEDTAMYYCVRLYYDGSPYAMDYWGQGTSVTVSS
VL: DIQMTQTTSSLSASLGDRVTISCRASQDISNHLNWYQQKPDGTVKLLIYYTSRLHSGVPSRFSGSGSGTDYSLTISNLEQEDIATYFCQQDSKPPPTFGSGTKLEIKR
OD450 at 0.0001 nM antibody: 0.05 OD450 nm
OD450 at 0.001 nM antibody: 0.05 OD450 nm
OD450 at 0.01 nM antibody: 0.05 OD450 nm
OD450 at 0.1 nM antibody: 0.05 OD450 nm
OD450 at 1 nM antibody: 0.05 OD450 nm
OD450 at 10 nM antibody: 0.07 OD450 nm
OD450 at 100 nM antibody: 0.16 OD450 nm

The next lines start with the values.

OD450 at 0.0001 nM antibody: 0.06 OD450 nm
OD450 at 0.001 nM antibody: 0.11 OD450 nm
OD450 at 0.01 nM antibody: 0.54 OD450 nm
OD450 at 0.1 nM antibody: 2.12 OD450 nm
OD450 at 1 nM antibody: 2.86 OD450 nm
OD450 at 10 nM antibody: 2.88 OD450 nm
OD450 at 100 nM antibody: 2.87 OD450 nm
B1: F4.13.7 human-murine chimeric antibody (antibody, human IgG1, kappa, V domains shown)
VH: QVQLQQPGAELVKPGASVKLSCKASGYTFTNNWVHWVKQRPGQGLEWTGMIHPDSGSTIYNEKFQSKATLTVDKSSSTAYMQLSSLTSEDSAVYYCARGYYDSSSYYAMDYWGQGTSVTVSS
VL: NIQMTQTTSSLSASLGDRVTISCSASQGIFNYLNWYQQKPDGTVKLLIYYTSSLHSGVPSRFSGSGSGTDYSLTISNLEPEDIATYYCQQYSKLPWTFGGGTKLEIKR

OD450 at 0.0001 nM antibody: 0.06 OD450 nm
OD450 at 0.001 nM antibody: 0.07 OD450 nm
OD450 at 0.01 nM antibody: 0.11 OD450 nm
OD450 at 0.1 nM antibody: 0.57 OD450 nm
OD450 at 1 nM antibody: 0.98 OD450 nm
OD450 at 10 nM antibody: 1.29 OD450 nm
OD450 at 100 nM antibody: 0.68 OD450 nm
B5: F4.26.1 human-murine chimeric antibody (antibody, human IgG1, kappa, V domains shown)
VH: QVQLKQSGPGLVQPSQSLSITCTVSGFSLTSYGVHWVRQSPGKGLEWLGVIWSSGNTDYNAVLISRLSIKKDDSKSQVFFKMNSPQVDDSAIYYCGRNGGWLLRGFMDFWGQGTSVTVSS
VL: B2 VL with S7T, R26S, V30L, K44R, P45S, K50N, V51L, S70G, V90I, Y101W

OD450 at 0.0001 nM antibody: 0.11 OD450 nm
OD450 at 0.001 nM antibody: 0.05 OD450 nm
OD450 at 0.01 nM antibody: 0.05 OD450 nm
OD450 at 0.1 nM antibody: 0.05 OD450 nm
OD450 at 1 nM antibody: 0.05 OD450 nm
OD450 at 10 nM antibody: 0.09 OD450 nm
OD450 at 100 nM antibody: 0.34 OD450 nm
B7: F3.54.12 human-murine chimeric antibody (antibody, human IgG1, kappa, V domains shown)
VH: QVQLQQSGAELVRPGASVKLSCKASGYTFTDYEMHWVKQTPVHGLEWIGAIDPETGNTAYIQKFKGKATLTTDKSSSTAYMELRSLTSEDSAVYYCTRFYSYSHWGQGTTLTVSS
VL: B2 VL with S7T, R26S, V51L, G71S, S96N, Y101P
